Results: patent US20240301061A1 (BEIGENE SWITZERLAND, published 2024)
Positions count from the first letter of the chain named. Numbers in names are those of the source.

T1: human claudin 6 (CLDN6) (human, UniProt P56747 1-220)
T1 construct: also called human CLDN6; hCLDN6
T1 sequence: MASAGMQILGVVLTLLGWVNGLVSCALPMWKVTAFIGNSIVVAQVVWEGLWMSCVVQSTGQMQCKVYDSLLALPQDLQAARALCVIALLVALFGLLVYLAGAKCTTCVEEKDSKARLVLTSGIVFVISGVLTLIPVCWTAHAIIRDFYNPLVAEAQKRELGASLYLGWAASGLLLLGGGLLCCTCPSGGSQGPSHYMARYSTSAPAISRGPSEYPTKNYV

B1: anti-CLDN6 chimeric BG87P (antibody, V domains shown)
VH: QIQLQQSGPELVKPGASVKISCKASGYSFTDYHINWVKQRPGQGLEWIGWIYPGSGYTKYNEKFKVKATLTVDTSSSTAYMHLTSLTSEDSAVYFCARSGIYHYVSSYYFDHWGQGTTLTVSS
VL: DIVMTQSHTFMSTSVGDRVSITCKASQDVGTAVAWYQQKPGQSPKLLIYWASTRHTGVPDRFTGSGSGTDFTLTISNVQSEDLADYFCQQYSSYTFGGGTKLEIK
notes: expressed in HEK293T; also called chBG87P; ChBG87P
B2: BG87P-33 (antibody, V domains shown)
VH: EVQLQESGGGLVQPGGSLRLSCAASGYSFTDYHINWVRQAPGKGLEWVSYIYPGSGHTKYNEKFKGRFTISRDTSKNTAYLQMNSLRAEDTAVYYCARSGIYHYVSSYYFDHWGQGTLVTVSS
VL: DIQMTQSPSTLSASVGDRVTITCKASQDAGSAVAWYQQKPGKAPKLLIYWASTRHTGVPSRFSGSGSGTEFTLTISSLQPDDFATYYCQQYSSYTFGGGTKVEIK
notes: Framework-swapped variant; also called BG87-33
B3: BG87P-34 (antibody, V domains shown)
VH: B2 VH with T30S, S49G, K76S
VL: B2 VL with T10S, E70D, D81E, V102L
notes: Final lead anti-CLDN6 clone (IGHV3-23 / IGKV1-39 framework); also called BG87-34
B4: BG87P-21 (antibody, V domains shown)
VH: QVQLVQSGAEVKKPGASVKVSCKASGYSFTDYHINWVRQAPGQRLEWMGWIYPGSGYTKYNEKFKGRVTITRDTSASTAYMELSSLRSEDTAVYYCARSGIYHYVSSYYFDHWGKGTTVTVSS
VL: B2 VL with A29V, S31T
notes: 2nd round humanized variant
B5: BG87P-31 (antibody, V domains shown)
VH: B4 VH with V5Q, V11T, P41S, W50Y, Y57H, Y60K
VL: B2 VL with Y49K
notes: Solubility engineering variant of BG87P-21
B6: BG87P-32 (antibody, V domains shown)
VH: B4 VH with V5Q, V11T, P41S, W50Y, Y57H, Y60K
VL: B2 VL
notes: as for B5
B7: BG87P-25 (antibody, V domains shown)
VH: B4 VH with V2I, I70L
VL: B2 VL with A29V, S31T
B8: BG87P-22 (antibody, V domains shown)
VH: B4 VH with Y95F
VL: B2 VL with A29V, S31T
B9: BG87P-27 (antibody, V domains shown)
VH: B4 VH with I70L, Y95F
VL: B2 VL with A29V, S31T
B10: BG87P-z0 (antibody, V domains shown)
VH: B4 VH with S28T, G66V
VL: B2 VL with A29V, S31T
notes: Humanized, no back mutations; also called BG87P-20
B11: BG87P-24 (antibody, V domains shown)
VH: B4 VH with I70L
VL: B2 VL with A29V, S31T
B12: BG87P-26 (antibody, V domains shown)
VH: B4 VH with V2I, Y95F
VL: B2 VL with A29V, S31T
B13: BG87P-23 (antibody, V domains shown)
VH: B4 VH with V2I
VL: B2 VL with A29V, S31T
B14: BG87P-m1 (antibody, V domains shown)
VH: B1 VH with D111E
VL: B1 VL
notes: PTM removal variant of chBG87P
B15: BG87P-m2 (antibody, V domains shown)
VH: B1 VH with D111Q
VL: B1 VL
notes: as for B14
B16: BG87P-m4 (antibody, V domains shown)
VH: B1 VH with H33A
VL: B1 VL
notes: Variant of chBG87P with H33A
B17: BG87P-m3 (antibody, V domains shown)
VH: B1 VH with V66G
VL: B1 VL
notes: PTM removal variant of chBG87P with VH V65G
B18: BG87P-Bz0 (antibody, V domains shown)
VH: B4 VH with V2I, G66V, I70L, R72V, Y95F
VL: B2 VL with A29V, S31T, A43S, L78V, Y87F
notes: Humanized, all back mutations; also called BG87P-B20; BG87-Bz0
B19: BG87P-m5 (antibody, V domains shown)
VH: B4 VH with V2I, G66V, I70L, R72V, Y95F, D111E
VL: B2 VL with A29V, S31T, A43S, L78V, Y87F
notes: PTM removal variant of BG87P-Bz0
B20: BG87P-Bz5 (antibody, V domains shown)
VH: B4 VH with V2I, G66V, I70L, R72V
VL: B2 VL with A29V, S31T, A43S, L78V, Y87F
notes: also called BG87P-B25
B21: BG87P-Bz7 (antibody, V domains shown)
VH: B4 VH with V2I, G66V, I70L, R72V, Y95F
VL: B2 VL with A29V, S31T, A43S, Y87F
notes: also called BG87P-B27
B22: BG87P-m8 (antibody, V domains shown)
VH: B4 VH with V2I, H33A, G66V, I70L, R72V, Y95F
VL: B2 VL with A29V, S31T, A43S, L78V, Y87F
notes: Variant of BG87P-Bz0 with H33A
B23: BG87P-Bz4 (antibody, V domains shown)
VH: B4 VH with V2I, G66V, I70L, Y95F
VL: B2 VL with A29V, S31T, A43S, L78V, Y87F
notes: also called BG87P-B24
B24: BG87P-Bz6 (antibody, V domains shown)
VH: B4 VH with V2I, G66V, I70L, R72V, Y95F
VL: B2 VL with A29V, S31T, L78V, Y87F
notes: also called BG87P-B26
B25: BG87P-Bz2 (antibody, V domains shown)
VH: B4 VH with V2I, S28T, G66V, I70L, R72V, Y95F
VL: B2 VL with A29V, S31T, A43S, L78V, Y87F
B26: BG87P-Bz3 (antibody, V domains shown)
VH: B4 VH with V2I, G66V, R72V, Y95F
VL: B2 VL with A29V, S31T, A43S, L78V, Y87F
notes: also called BG87P-B23
B27: BG87P-Bz8 (antibody, V domains shown)
VH: B4 VH with V2I, G66V, I70L, R72V, Y95F
VL: B2 VL with A29V, S31T, A43S, L78V
B28: BG87P-Bz1 (antibody, V domains shown)
VH: B4 VH with G66V, I70L, R72V, Y95F
VL: B2 VL with A29V, S31T, A43S, L78V, Y87F
B29: BG87P-m6 (antibody, V domains shown)
VH: B4 VH with V2I, G66V, I70L, R72V, Y95F, D111Q
VL: B2 VL with A29V, S31T, A43S, L78V, Y87F
notes: as for B19
B30: BG87P-m7 (antibody, V domains shown)
VH: B4 VH with V2I, I70L, R72V, Y95F
VL: B2 VL with A29V, S31T, A43S, L78V, Y87F
notes: as for B19

What follows are binders tested against T2, cyno CLDN6 (cyno) (assay: flow cytometry, HEK293T-cyno-CLDN6 cells; ratio to chBG87P).
T2 construct: whole, on cells; also called cynomolgus CLDN6

FACS Emax ratio to BG87P	Binder
1	B1
0.75	B2
1	B3
0.8	B4

The binders below were run against T1, human claudin 6 (CLDN6) (assay: flow cytometry, HEK293-hCLDN6 cells; ratio to chBG87P).

FACS-Ec50 ratio to BG87P	Binder
1	B1
1.6	B5
2.45	B2
1.31	B6
1.17	B3
0.91	B4

The binders below were run against T1, human claudin 6 (CLDN6) (assay: flow cytometry, PA-1 cells; ratio to chBG87P).
Method: (§1) For affinity determination, CLDN6 over-expressing HEK293T cells and cancer cell line PA-1 which express high levels of human CLDN6 were used to evaluate the binding activity of BG87P related engineering variants. Live cells were seeded in 96-well plate, and were incubated with a series of dilutions of chBG87P and engineered variants thereof. Goat anti-human IgG was used as second antibody to detect antibody binding to the cell surface. EC50 values for dose-dependent binding to CLDN6 expressing cell lines were determined by fitting the dose-response data to the four-parameter logistic model with GraphPad Prism. Cell binding activity of 1st round of BG87P humanization variants against HEK293T/human CLDN6 were compared to chBG87P and shown in FIG. 1A.

Emax ratio to BG87P	Binder
1	B1
0.59	B7
0.54	B8
0.53	B9
0.43	B10
0.5	B11
0.54	B12
0.61	B4
0.58	B13

The binders below were run against T1, human claudin 6 (CLDN6) (assay: flow cytometry, HEK293T-hCLDN6 cells; ratio to chBG87P).

FACS Emax ratio to BG87P	Binder
1	B1
0.76	B5
0.91	B2
0.63	B6
1.03	B3
0.66	B4

These binders were tested against T1, human claudin 6 (CLDN6) (assay: flow cytometry, HEK293T-human CLDN6 cells; ratio to chBG87P).
Method: as §1

Emax ratio to BG87P	Binder
1	B1
1.08	B14
1.05	B15
0.74	B16
1.18	B17
0.56	B18
0.66	B19
0.74	B7
0.73	B20
0.71	B8
0.81	B21
0.28	B22
0.57	B23
0.68	B9
0.5	B10
0.75	B24
0.73	B11
0.44	B25
0.56	B26
0.68	B27
0.77	B12
0.78	B4
0.52	B28
0.62	B29
0.77	B13
0.7	B30

The binders below were run against T1, human claudin 6 (CLDN6) (assay: flow cytometry, PA-1 cells).
Method: as §1

Top MFI Mean	Binder
67800 MFI	B8
76500 MFI	B4
